Data published in paper PMC12629983, “Nanobody-based recombinant antivenom for cobra, mamba and rinkhals bites” (Nature, 2025).

Legend:
Conditions in all cases: both partners purified
[1] = molecular target: protein of Hemachatus haemachatus PRINTED:77012629983_21 (Hemachatus haemachatus, fraction Hh9 …); test: BLI; […] (0.5 µg/ml) […], pH 7.2; 600 s association, 600 s dissociation; global 1:1 fit
[2] = molecular target: T1, Cardiotoxin (P01468) from N. pallida (Naja pallida, UniProt P01468); test: crystal structure
T1 construct: also called cardiotoxin (UniProt: P01468); source: bought: Latoxan (lyophilized)

[3] = molecular target: CTx-10 (Naja pallida (Kenya, L1321)); Latoxan …, UniProt P01468, biotin (EZ-Link NHS-PEG4-Biotin, amine coupling)); test: BLI; […], pH 7.2; 600 s association, 600 s dissociation; global 1:1 fit
[4] = molecular target: T2, Og XI-2 (Dendroaspis viridis, UniProt P01405); test: BLI; […] (0.5 µg/ml) […], pH 7.2; 600 s association, 600 s dissociation; global 1:1 fit
T2 construct: source: venom fraction isolated from whole venom (Latoxan) by RP-HPLC; biotinylated

[5] = molecular target: T3, Og XI-1 (Dendroaspis jamesoni venom (L1308); …); test: as above
T3 construct: source: venom fraction isolated from whole venom (Latoxan) by RP-HPLC; biotinylated
T3 chain: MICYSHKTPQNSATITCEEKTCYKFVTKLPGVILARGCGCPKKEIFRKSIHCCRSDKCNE

[6] = molecular target: T4, lNTx-7 (Naja kaouthia (Latoxan L8114), biotin (EZ-Link NHS-PEG4-Biotin, amine coupling)); test: as above
T4 chain: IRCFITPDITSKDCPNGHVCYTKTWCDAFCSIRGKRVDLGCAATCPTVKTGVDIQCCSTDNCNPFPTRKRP

[7] = molecular target: T5, lNTx-3 (Dendroaspis polylepis (L1309), fraction …, biotin (EZ-Link NHS-PEG4-Biotin, amine coupling)); test: as above
T5 chain: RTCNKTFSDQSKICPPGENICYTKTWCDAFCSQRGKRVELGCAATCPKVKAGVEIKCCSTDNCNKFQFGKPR

[8] = molecular target: T6, KUN-1 (Dendroaspis jamesoni (L1308, Cameroon), …, biotin (EZ-Link NHS-PEG4-Biotin, amine coupling)); test: as above
T6 construct: source: venom fraction isolated from whole venom (Latoxan) by RP-HPLC; biotinylated
T6 chain: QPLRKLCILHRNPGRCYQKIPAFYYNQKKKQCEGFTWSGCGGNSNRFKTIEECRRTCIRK

[9] = molecular target: T7, KUN-2 (Dendroaspis polylepis (L1309), fraction …, biotin (EZ-Link NHS-PEG4-Biotin, amine coupling)); test: as above
T7 construct: source: venom fraction isolated from whole venom (Latoxan) by RP-HPLC; biotinylated
T7 chain: T6 chain

[10] = molecular target: KUN-2 (Dendroaspis polylepis (L1309), UniProt P00979, biotin (EZ-Link NHS-PEG4-Biotin, amine coupling)); test: BLI; […], pH 7.2; 600 s association, 600 s dissociation; global 1:1 fit
[11] = molecular target: T8, PLA2-3 (Naja nubiae (Egypt, L1342), fraction …, UniProt P14556); test: cryo-EM structure
T8 construct: also called basic phospholipase A2 nigexine (P14556)

[12] = molecular target: T9, sNTx-6 (Naja melanoleuca (L1318), fraction Nm3, biotin (EZ-Link NHS-PEG4-Biotin, amine coupling)); test: BLI; […] (0.5 µg/ml) […], pH 7.2; 600 s association, 600 s dissociation; global 1:1 fit
T9 chain: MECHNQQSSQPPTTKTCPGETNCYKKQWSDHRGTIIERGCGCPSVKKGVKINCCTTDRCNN

[13] = molecular target: T10, sNTx-5 (Hemachatus haemachatus (L1311), …, biotin (EZ-Link NHS-PEG4-Biotin, amine coupling)); test: as above
T10 chain: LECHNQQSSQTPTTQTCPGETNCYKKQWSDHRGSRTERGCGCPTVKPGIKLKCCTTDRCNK

[14] = molecular target: T11, sNTx-1 (Dendroaspis jamesoni (L1308, Cameroon), …); test: as above
T11 chain: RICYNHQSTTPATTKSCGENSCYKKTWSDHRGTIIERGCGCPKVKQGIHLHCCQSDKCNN

[15] = molecular target: T12, sNTx-7 (Naja annulifera (L1314), fraction Nan3, biotin (EZ-Link NHS-PEG4-Biotin, amine coupling)); test: as above
T12 chain: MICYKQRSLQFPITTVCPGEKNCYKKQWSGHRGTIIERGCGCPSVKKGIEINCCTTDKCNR

[16] = molecular target: T13, α-short-chain neurotoxin (P01426) from N. pallida (Naja pallida, UniProt P01426); test: crystal structure
T13 construct: also called short neurotoxin 1 (P01426); source: bought: Latoxan (lyophilized)
T13 sequence (P01426 whole entry, one chain of several): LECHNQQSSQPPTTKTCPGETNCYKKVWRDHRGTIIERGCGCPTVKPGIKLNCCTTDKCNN

T1 sequence (P01468 whole entry, looked up, one chain of several): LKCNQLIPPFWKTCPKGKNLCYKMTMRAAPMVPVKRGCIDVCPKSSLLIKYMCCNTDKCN
Sequence of CTx-10 (Naja pallida (Kenya, L1321)); Latoxan …, UniProt P01468, biotin (EZ-Link NHS-PEG4-Biotin, amine coupling)) (P01468 whole entry, looked up): as the sequence (P01468 whole entry, looked up, one chain of several) above
T8 sequence (P14556 whole entry): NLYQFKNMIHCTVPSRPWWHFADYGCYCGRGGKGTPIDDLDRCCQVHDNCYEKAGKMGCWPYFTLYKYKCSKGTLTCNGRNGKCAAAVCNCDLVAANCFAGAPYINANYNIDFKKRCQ

B1:  (VHH)
VHH: QVQLQESGGGLVQAGGSLRLSCAASGRTFSSYAMAWFRQAPGKEREFVASISWNGDSTYYADSVKGRFTISGDNAKNTWYLQMKSLKPEDTAVYYCNTEDEGSGTYYEWGQGTQVTVSS
notes: also called VHH1; source: E. coli BL21 (DE3), purified (Ni resin)
binding result [1]: no binding (tested: 480 nM)

B2:  (VHH)
VHH: B1 VHH
notes: also called anti-CTx VHH; source: E. coli BL21 (DE3), purified (Ni-NTA)
binding result [2]: binds
binding result [3]: binds

B3: VHH15 a-Og XI (VHH)
VHH: QVQLQESGGGAVPAGGSLTLSCAASGRTLSDYTMGWFRQAPGKEREIVGAISWNDGYTYYDDSVKGRFTISRDNAKNTMYLQMNSLKPEDTAVYYCAAQAPEMVRSGNFGSWGPGTQVTVSS
notes: source: E. coli BL21 (DE3), purified (Ni resin)
Kd [4]: 2.16 nM
koff [4]: 0.000122 s⁻¹
kon [4]: 56700 M⁻¹ s⁻¹
Kd [5]: 2.19 nM
koff [5]: 0.000161 s⁻¹
kon [5]: 73400 M⁻¹ s⁻¹

B4: VHH9 a-lNTx (VHH)
VHH: QVQLQESGGGLVQPGGSLRLSCTASGSIFSTVNTMGWYRQAPGKQRELVAAITGGGSTNYADSVKGRFTISRDNVENTVHLRMNALKPEDTAVYYCNFQEYCSAYGCYELPHDYWGQGTQVTVSS
notes: as for B3
Kd [6]: 0.753 nM
koff [6]: 2.71e-05 s⁻¹
kon [6]: 36000 M⁻¹ s⁻¹
Kd [7]: 1.18 nM
koff [7]: 0.000203 s⁻¹
kon [7]: 173000 M⁻¹ s⁻¹

B5: VHH17 a-KUN (VHH)
VHH: QVQLQESGGGLVQPGGSLRLSCITSGSNFDDLSVGWFRQAPGKEREGVSCFSSSDGSTYYVDSVKGRFTMSRDNAKNTVYLQMNNLKPEDTAVYYCTADGFPYPSETMCSIPGGPDSVAWGQGTQVTVSS
notes: as for B3
Kd [8]: 0.0405 nM
koff [8]: 8.43e-07 s⁻¹
kon [8]: 20800 M⁻¹ s⁻¹
Kd [9]: < 0.001 nM
koff [9]: < 1e-07 s⁻¹
kon [9]: 86900 M⁻¹ s⁻¹

B6: VHH17 a-KUN (VHH)
VHH: B5 VHH
notes: source: E. coli BL21 (DE3), purified (Ni-NTA)
binding result [10]: binds

B7: VHH20 a-PLA2 (VHH)
VHH: QVQLQESGGGLAQAGGSLRLSCAASGLAFSNYSMGWARQAPGKEREFVAAISWSHQPTYYADSVKGRFTISRDNAKNTLYLQMNSLKPEDTAVYYCAADSRPNSYRLGGPGNYWGQGTQVTVSS
notes: also called anti-PLA2 VHH
binding result [11]: binds

B8: VHH5 a-sNTx (VHH)
VHH: QVQLQESGGGLVRPGGSLRLSCAVSGVSESIFANYVVGWFRQQDSGTGRDLVAQSSSDDEYNHVSGSVKGRFTISRDNAKNTVSLQMDNLKPEDTAIYICAAAIGPGDNYIYWGQGTQVTVSS
notes: as for B3
Kd [12]: 5.46 nM
koff [12]: 0.000163 s⁻¹
kon [12]: 29800 M⁻¹ s⁻¹
Kd [13]: 16.9 nM
koff [13]: 0.000631 s⁻¹
kon [13]: 37400 M⁻¹ s⁻¹
Kd [14]: 1.9 nM
koff [14]: 4.72e-05 s⁻¹
kon [14]: 24900 M⁻¹ s⁻¹
Kd [15]: 0.388 nM
koff [15]: 1.44e-05 s⁻¹
kon [15]: 37100 M⁻¹ s⁻¹

B9: VHH5 a-sNTx (VHH)
VHH: B8 VHH
notes: also called anti-sNTx VHH; source: E. coli BL21 (DE3), purified (Ni-NTA)
binding result [16]: binds

B10:  (VHH)
VHH: QVQLQESGGGLVQAGGSLRLSCAAPGFTFDNYAIGWFRQAPGKEREAVSMIDVNDGDTYYADSVKGRFATSIDNARITAYLQMNSLKPEDTAVYYCAAGEQGGIETEDDYGMDYYGKGTQVTVSS
notes: also called VHH4; source: E. coli BL21 (DE3), purified (Ni resin)
binding result [1]: no binding (tested: 480 nM)
